Legend:
[1] = target: T1, CkSucD (Clostridium kluyveri, UniProt P38947); assay: X-ray crystal structure, […] Å; format: binding
T1 construct: gene sucD; His-tagged, expressed in E. coli BL21(DE3), HisTrap purified (gel filtration for crystals); homodimer
T1 sequence (P38947 1-453): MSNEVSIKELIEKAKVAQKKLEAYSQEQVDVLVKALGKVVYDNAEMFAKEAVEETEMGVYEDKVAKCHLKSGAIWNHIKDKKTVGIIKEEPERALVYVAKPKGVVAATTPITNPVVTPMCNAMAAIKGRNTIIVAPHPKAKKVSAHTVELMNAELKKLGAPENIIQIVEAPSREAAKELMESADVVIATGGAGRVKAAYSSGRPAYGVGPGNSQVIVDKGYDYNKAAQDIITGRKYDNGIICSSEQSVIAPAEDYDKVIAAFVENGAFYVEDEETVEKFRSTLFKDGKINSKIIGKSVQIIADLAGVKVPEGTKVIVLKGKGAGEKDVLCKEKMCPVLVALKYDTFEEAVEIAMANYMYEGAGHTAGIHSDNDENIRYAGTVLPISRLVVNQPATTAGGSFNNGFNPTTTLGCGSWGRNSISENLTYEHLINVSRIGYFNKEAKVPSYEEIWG

[2] = test system: T2, CC(C)(COP(=O)(O)OP(=O)(O)OC[C@H]1O[C@@H](n2cnc3c(N)ncnc32)[C@H](O)[C@@H]1OP(=O)(O)O)[C@@H](O)C(=O)NCCC(=O)NCCSC(=O)CCC(=O)O; assay: purified protein; format: biochemical, Clostridium kluyveri; details: 200 mM HEPES pH 7.5, 400 µM NADPH, 400 nM enzyme, 30 °C, apparent KM
T2 construct: His-tagged, expressed in E. coli BL21(DE3), HisTrap purified (gel filtration for crystals); homodimer

[3] = test system: T3, C/C(=C\C(=O)O)C(=O)SCCNC(=O)CCNC(=O)[C@H](O)C(C)(C)COP(=O)(O)OP(=O)(O)OC[C@H]1O[C@@H](n2cnc3c(N)ncnc32)[C@H](O)[C@@H]1OP(=O)(O)O; assay: purified protein; format: biochemical, Clostridium kluyveri; details: 200 mM HEPES pH 7.5, 400 µM NADPH, 400 nM enzyme, 30 °C, apparent KM
T3 construct: His-tagged, expressed in E. coli BL21(DE3), HisTrap purified (gel filtration for crystals); homodimer

[4] = test system: CC(C)(COP(=O)(O)OP(=O)(O)OC[C@H]1O[C@@H](n2cnc3c(N)ncnc32)[C@H](O)[C@@H]1OP(=O)(O)O)[C@@H](O)C(=O)NCCC(=O)NCCSC(=O)CCCO; assay: purified protein; details: 200 mM HEPES pH 7.5, 400 µM NADPH, 400 nM enzyme, 30 °C, apparent KM
[5] = substrate: CCC(=O)SCCNC(=O)CCNC(=O)[C@H](O)C(C)(C)COP(=O)(O)OP(=O)(O)OC[C@H]1O[C@@H](n2cnc3c(N)ncnc32)[C@H](O)[C@@H]1OP(=O)(O)O; assay: purified protein; details: 200 mM HEPES pH 7.5, 400 µM NADPH, 400 nM enzyme, 30 °C, apparent KM
[6] = substrate: CC(C)(COP(=O)(O)OP(=O)(O)OC[C@H]1O[C@@H](n2cnc3c(N)ncnc32)[C@H](O)[C@@H]1OP(=O)(O)O)[C@@H](O)C(=O)NCCC(=O)NCCSC(=O)CCC(=O)O; assay: purified protein; details: 200 mM HEPES pH 7.5, 400 µM NADPH, 400 nM enzyme, 30 °C, apparent KM
[7] = substrate: C/C=C/C(=O)SCCNC(=O)CCNC(=O)[C@H](O)C(C)(C)COP(=O)(O)OP(=O)(O)OC[C@H]1O[C@@H](n2cnc3c(N)ncnc32)[C@H](O)[C@@H]1OP(=O)(O)O; assay: purified protein; details: 200 mM HEPES pH 7.5, 400 µM NADPH, 400 nM enzyme, 30 °C, apparent KM
[8] = substrate: C/C(=C\C(=O)O)C(=O)SCCNC(=O)CCNC(=O)[C@H](O)C(C)(C)COP(=O)(O)OP(=O)(O)OC[C@H]1O[C@@H](n2cnc3c(N)ncnc32)[C@H](O)[C@@H]1OP(=O)(O)O; assay: purified protein; details: 200 mM HEPES pH 7.5, 400 µM NADPH, 400 nM enzyme, 30 °C, apparent KM
[9] = substrate: C/C(=C\C(=O)SCCNC(=O)CCNC(=O)[C@H](O)C(C)(C)COP(=O)(O)OP(=O)(O)OC[C@H]1O[C@@H](n2cnc3c(N)ncnc32)[C@H](O)[C@@H]1OP(=O)(O)O)C(=O)O; assay: purified protein; details: 200 mM HEPES pH 7.5, 400 µM NADPH, 400 nM enzyme, 30 °C, apparent KM
[10] = target: the molecule itself; assay: crystal structure; X-ray structures of CkSucD without ligands (8CEI), with NADPH (8CEK) and with mesaconyl-C1-CoA (8CEJ); sitting-drop vapor diffusion at 288 K
[11] = substrate: CC(C)(COP(=O)(O)OP(=O)(O)OC[C@H]1O[C@@H](n2cnc3c(N)ncnc32)[C@H](O)[C@@H]1OP(=O)(O)O)[C@@H](O)C(=O)NCCC(=O)NCCSC(=O)CCC(=O)O; assay: purified protein; format: biochemical, Clostridioides difficile; details: 200 mM HEPES pH 7.5, 400 µM NADPH, 30 °C, apparent KM
[12] = substrate: C/C(=C\C(=O)O)C(=O)SCCNC(=O)CCNC(=O)[C@H](O)C(C)(C)COP(=O)(O)OP(=O)(O)OC[C@H]1O[C@@H](n2cnc3c(N)ncnc32)[C@H](O)[C@@H]1OP(=O)(O)O; assay: purified protein; format: biochemical, Clostridioides difficile; details: 200 mM HEPES pH 7.5, 400 µM NADPH, 30 °C, apparent KM

For `C/C(=C\C(=O)O)C(=O)SCCNC(=O)CCNC(=O)[C@H](O)C(C)(C)COP(=O)(O)OP(=O)(O)OC[C@H]1O[C@@H](n2cnc3c(N)ncnc32)[C@H](O)[C@@H]1OP(=O)(O)O` [mesaconyl-C1-CoA], the “X-ray crystal structure, 2.1 Å” value ([1]; 5 mM ligand, pH 7.5, active site, intact ligand in chain C, covalent mesaconyl-Cys242 in chains A, B, D) was “mesaconyl-C1 CoA bound state (pdb 8CEJ”.

For “CkSucD (Clostridium kluyveri DSM 555; K70R)”, the Km [2] was 19.9 ± 2.3 µM, the kcat [2] was 0.9 ± 0.03 s⁻¹ and the Km [3] was 86.1 ± 15.1 µM. For the same molecule, the kcat [3] was 0.1 ± 0.01 s⁻¹.

With CkSucD (Clostridium kluyveri DSM 555) the Km [4] was 48.9 ± 10.8 µM and the kcat [4] was 0.2 ± 0.01 s⁻¹.

`NC(=O)C1=CN([C@@H]2O[C@H](COP(=O)(O)OP(=O)(O)OC[C@H]3O[C@@H](n4cnc5c(N)ncnc54)[C@H](OP(=O)(O)O)[C@@H]3O)[C@@H](O)[C@H]2O)C=CC1` [NADPH] was tested, and the “X-ray crystal structure, 2.1 Å” value ([1]; 5 mM NADPH, pH 6.5 (abstract calls the ligand NADP+)) was 8CEK (with NADPH).

B1: Succinyl-CoA reductase (SucD) from Clostridium kluyveri (enzyme)
chain: T1 sequence (P38947 1-453)
notes: Succinyl-CoA reductase (SucD) of Clostridium kluyveri, UniProt P38947; In PDB 8CEJ Cys242 carries a mesaconyl-cysteine intermediate in subunits A, B and D; also called CkSucD; source: E. coli BL21 DE3, purified (HisTrap FF, desalting, size exclusion chromatography on Superdex 200)
In the case of B1, the Km [5] is reported as 145.2 ± 144 µM, the kcat [5] is reported as 0.1 ± 0.04 s⁻¹ and the Km [6] is reported as 22.6 ± 4.9 µM. For the same molecule, the kcat [6] was 7.8 ± 0.43 s⁻¹, the Km [7] was 332.6 ± 54.8 µM and the kcat [7] was 0.3 ± 0.03 s⁻¹. It also gave a Km [8] of 28.5 ± 4.7 µM, a kcat [8] of 1.6 ± 0.07 s⁻¹ and a Km [9] of 25.7 ± 6.8 µM. For the same molecule, the kcat [9] was 0.2 ± 0.02 s⁻¹ and the “stoichiometry N” value [10] was 2.

B2: CdSucD (Clostridioides difficile R20291) (protein)
chain: MEKAVENFEDLSKEYINGYIERARKAQREFECYTQEQVDKIVKIVGKVVYYNAEYLAKLAVEETGMGVYEDKVAKNKSKAKVIYNNLKDKKSVGIIDIDRETGITKVAKPVGVVAAITPCTNPIVTPMSNAMFALKGRNAIIITPHHKAIGCSTKTVEMINEELEKIGAPENLIQILDQQSRENTRNLISSADVVIATGGMGMVKAAYSSGKPALGVGAGNVQCIIDRDVDIKEAVPKIIAGRIFDNGIICSGEQSVIVAEEMFDKIMDEFKNNKGFIVRDKVQKEAFRNAMFVNKSMNKDAVGQSVHTIAKIAGVEIPEDTKIIVIEADGPGEEDIIAKEKMCPVISAYKYKSFEEGVAIAKANLNVEGKGHSVSIHSNTVKNIEYAGENIEVSRFVINQCCATSAGGSFFNGLAPTNTLGCGSWGNNSISENLDYKHLINISRIAYYMPENEVPTDEELWG
notes: His-tagged, expressed in E. coli BL21(DE3), HisTrap purified
With B2 the Km [11] was 213.8 ± 49.4 µM, the kcat [11] was 28.7 ± 4.1 s⁻¹ and the Km [12] was 38.3 ± 14.9 µM. The kcat [12] was 0.65 ± 0.08 s⁻¹.

— publication PMC10249356 (Biochemistry, 2023)
